Consider one molecule from US20050287136A1.

Experiment [1] has as its target CTLA-4-Ig(G1) (Repligen, Inc.) (UniProt P16410). Kind of experiment: IGEN ECL bead assay, CTLA-4-Ig(G1) against B7.2-Ig(G1), antibody 1 ug/ml.
For experiment [2] the target is unchanged. Kind of experiment: IGEN ECL bead assay, CTLA-4-Ig(G1) against CD28-Ig(G1), antibody 1 ug/ml.

Bounds are passed on as bounds.

B1: 4.10.2 (antibody, human IgG2, V domains shown)
VH: QVQLVESGGGVVQPGRSLRLSCVASGFIFSSHGIHWVRQAPGKGLEWVAVIWYDGRNKDYADSVKGRFTISRDNSKNTLYLQMNSLRAEDTAVYYCARVAPLGPLDYWGQGTLVTVSS
VL: EFVLTQSPGTLSLSPGERATLSCRASQSISSNFLAWYQQKPGQAPRLLIYRPSSRATGIPDSFSGSGSGTDFTLTISRLEPEDFALYYCQQYGTSPFTFGPGTKVDIK
modifications: chain 1 pos 1: pyroglutamate from Gln (FIG. 9: NH2-Blocked, pQ), written Q
Turning to B1, the selectivity ratio CTLA4/B7.2 in experiment [1] is > 500 :1. Further, the selectivity ratio CTLA4/CD28 in experiment [2] was > 500 :1.
